# Assay results: patent US20110003315A1
# Target: mouse VLDLR (skeletal muscle) (mouse) (UniProt P98156)
# Assay: cell-based or functional assay
# Sequence of mouse VLDLR (skeletal muscle) (mouse) (P98156 28-873): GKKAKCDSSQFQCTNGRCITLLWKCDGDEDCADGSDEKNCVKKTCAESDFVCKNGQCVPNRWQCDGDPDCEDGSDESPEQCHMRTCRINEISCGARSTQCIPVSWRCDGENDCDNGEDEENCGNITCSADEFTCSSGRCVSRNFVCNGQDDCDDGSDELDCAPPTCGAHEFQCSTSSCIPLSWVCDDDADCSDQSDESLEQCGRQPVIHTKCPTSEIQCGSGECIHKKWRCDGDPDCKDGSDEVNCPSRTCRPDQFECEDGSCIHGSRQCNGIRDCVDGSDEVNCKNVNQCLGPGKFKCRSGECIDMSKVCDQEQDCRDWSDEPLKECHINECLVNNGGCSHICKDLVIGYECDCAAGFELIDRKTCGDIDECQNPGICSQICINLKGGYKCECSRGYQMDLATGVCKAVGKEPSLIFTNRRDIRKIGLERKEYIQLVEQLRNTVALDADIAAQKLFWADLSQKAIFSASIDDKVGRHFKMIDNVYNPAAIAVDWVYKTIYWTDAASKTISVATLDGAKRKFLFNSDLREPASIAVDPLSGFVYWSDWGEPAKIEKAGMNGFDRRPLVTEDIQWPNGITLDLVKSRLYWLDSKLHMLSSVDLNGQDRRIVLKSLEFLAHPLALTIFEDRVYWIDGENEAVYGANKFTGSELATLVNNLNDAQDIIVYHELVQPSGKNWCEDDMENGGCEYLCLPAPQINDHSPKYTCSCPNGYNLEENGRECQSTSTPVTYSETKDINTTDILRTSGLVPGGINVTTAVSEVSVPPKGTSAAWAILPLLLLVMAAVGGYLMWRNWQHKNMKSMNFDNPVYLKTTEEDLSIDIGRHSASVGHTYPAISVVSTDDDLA
substance,measurement,value
wild type human PCSK9 with C-terminal V5 tag (from UniProt Q8NBP7 31-692) (enzyme),level of VLDLR in muscle of transgenic mice against non-transgenic control littermates,< 3 fold
